Here are results for one molecule from patent US20140234868A1, “USE FOR GLYCOLIPOPROTEIN GINTONIN, ISOLATED AND IDENTIFIED FROM GINSENG, AS A NATURAL MEDICAL-PLANT DERIVED LIGAND” (KONKUK UNIVERSITY INDUSTRIAL COOPERATION CORP., priority 2011, published 2014).

One test has as its target T1, LPA3 receptor (Homo sapiens, UniProt Q9UBY5).
T1 construct: host or cells: B103 rat neuroblastoma cells
T1 sequence (Q9UBY5 1-353): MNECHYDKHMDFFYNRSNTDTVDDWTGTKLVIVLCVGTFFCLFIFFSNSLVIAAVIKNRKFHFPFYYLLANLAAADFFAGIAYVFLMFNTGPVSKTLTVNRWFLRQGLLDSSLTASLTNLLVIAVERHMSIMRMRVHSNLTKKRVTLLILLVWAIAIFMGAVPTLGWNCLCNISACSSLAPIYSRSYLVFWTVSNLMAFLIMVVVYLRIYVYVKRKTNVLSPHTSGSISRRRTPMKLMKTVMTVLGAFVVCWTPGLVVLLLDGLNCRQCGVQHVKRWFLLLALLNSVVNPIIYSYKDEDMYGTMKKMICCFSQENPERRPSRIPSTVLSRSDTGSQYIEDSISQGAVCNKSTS
As to the kind of experiment: Intracellular cAMP level in LPA3-expressing B103 cells. The class given is cell-based. The text has this: After treatment with gintonin, B103 cells expressing LPA3 or LPA6 receptor were examined for change in intracellular cAMP level.
Background: cAMP levels reflect the balance of adenylyl cyclase and phosphodiesterase activity.

The subject of test [1] is mutant NMDA receptor (S1312A). Briefly: Gintonin-induced activation of mutant NMDA receptor S1312A in oocytes. The class given is cell-based. On the procedure: Two-electrode voltage-clamp recordings were obtained from individual oocytes placed in a small Plexiglas net chamber (5 ml). Electrophysiological experiments were performed using microelectrodes filled with 3 M KCl (resistance of 0.2-0.7 MΩ) and an Oocyte Clamp amplifier (OC-725C; Warner Instrument, Hamden, Conn.). For physiological recordings of NMDA receptor activity, oocytes were first perfused with Mg^2+-free ND96 (mM: 96 NaOH, 2 KOH, 0.3 CaCl2, 5 HEPES pH 7.6 with methanesulfonic acid). Then, the oocytes were clamped at −60 mV holding potential, followed by recoding NMDA currents (induced by administering […]) (Zheng et al., J Neurosci. 17, 8676-8686, 1997; Chang and Kuo, J Neurosci. 28, 1546-1556, 2008).
Thus, it is understood that gintonin stimulates PKC to phosphorylate the NMDA receptor at a specific site (S1308), and thus that gintonin-induced NMDA receptor activation is associated with PKC activity.

For another test, the system named is mice. As to the kind of experiment: Water maze test, scopolamine-caused spatial cognition impairment. The class given is in vivo, mouse. As for the experimental part:
The Moths water maze set up contained a round water pool (45 cm deep with a diameter of 90 cm) filled with milk-mixed water (22±1° C.) to a depth of 30 cm. It was placed in a dark, sound-shielded room in which various visual cues were established. A white platform (6 cm in diameter, 29 cm in height) was inside the pool, with the top thereof 1 cm below the water surface in the center of one quadrant of the maze
On day 1, the mice were trained to swim for 60 sec. Subsequently, the training was conducted four times a day for four consecutive days, with the platform inside the pool. When the mouse reached the platform, it was allowed to sit on the platform only for 10 sec. If the failed in reaching the platform within 60 sec, it was guided to reach the platform and stay for 10 sec thereon. Afterwards, the mouse was returned back to the home cage and allowed to dry its body under an IR lamp. The time interval between trials was 30 sec.
The time to reach the hidden platform was recorded in each trial using a video camera-based Ethovision System (Nodulus, Wageningen, the Netherlands).
For each training trial, the mouse was placed into the pool at one quadrant at positions which were different day by day. One day after the final training trial, the mouse was evaluated. In this regard, after the platform was removed, the mouse was allowed to swim for 60 sec in search for the platform, and the time to swim in the quadrant where the platform was located was recorded. Gintonin (25, 50, or 100 mg/kg, p.o.) in physiological saline was administered 1 hr before test, every day. Tacrine (10 mg/kg, p.o.) was used as a positive control. Memory impairment was induced by scopolamine (0.9 mg/kg i.p.) 30 min after gintonin administration. For a negative control, only physiological saline was administered.
An examination was made of simple spatial reasoning. To this end, while the mice were allowed to swim in the absence of the rescue platform in the pool, the time period during which the mice swam in the quadrant where the rescue platform had been located was recorded.

The test system of test [2] is HUVECs. As to the kind of experiment: HUVEC migration, Boyden chamber. The conditions noted are these: 70~80 min, 37° C. The class given is cell-based, human. As for the experimental part:
To measure the effect of gintonin on cell migration, a Boyden chamber (Neuro Probe Inc., Gaithersburg, Md., USA) assay was employed (Kim et al. Biol Pharm Bull 30: 1674-1679, 2007; Lee et al. Am J Physiol Cell Physiol 278:C612-C618, 2000).
In the Boyden chamber (48 wells) of two compartments separated by a collagen-coated polycarbonate microporous membrane (8-μm pores), gintonin in M199 (0.1% BSA contained) was placed onto the wells of lower compartment while a HUVEC suspension was added to the wells of the upper compartment (5×10^4 cells/well). During incubation at 37° C. for 70˜80 min, the cells were allowed to migrate through the membrane into the lower compartment. Then, the chamber was disassembled, and the cells on the membrane was fixed and stained with Diff Quik (Sysmex, Kobe, Japan), and mounted on a slide.

The test system of test [3] is HUVECs. As to the kind of experiment: Tubular formation of HUVECs on Matrigel. The test is classed as cell-based, human. The conditions noted are these: gintonin 30 μg/ml, 4 hrs. On the procedure:
To examine the effect of gintonin on angiogenesis, formation of vascular tube-like structures on Matrigel was compared between the control and the gintonin-treated group (Kim et al. Biol Pharm Bull 30: 1674-1679).
Briefly, cells were incubated for 6 hrs in M199 (1% FBS). After trypsinization, the cells were suspended in M199 (1% FBS), and seeded (2×10^5 cells/well) to 24-well plates coated with Matrigel (250 μl/well).
The cells were incubated at 37° C. for 4 hrs in M199 (1% FBS) containing gintonin (30 μg/ml), and observed for tubular formation by inverted fluorescence microscopy (AxioVert200, Carl Zeiss).

Test [4] concerns mouse EAT (Ehrlich Ascites Tumor). The conditions noted are these: mouse EAT cells; PLC-coupled pathway; cited from earlier work.

B1: gintonin: ginseng-derived glycolipoprotein; structural protein of ginseng major latex-like protein (MLP151) and ribonuclease-like storage proteins; crude gintonin used in tests (protein)
chain 1: MGLTGKLICQTGIKSDGDVFHELFGTRPHHVPNITPANIQGCDLHEGEFGKVGSVVIWNYSIDGNAMIAKEEIVAIDEEDKSVTFKVVEGHLFEEFKSIVFSVHVDTKGEDNLVTWSIDYEKLNESVKDPTSYLDFLLSVTRDIEAHHLPK
chain 2: RSDYPWAMFALRLQWPAGFCEVNNACDTKSLLNTFTIHGLYPYNAKGTPALYCDGTAFDVNSVSDFLAEMHLAWPSHETNTEDIQFWEHEWKKHGRCSEALLKQTDYFRTALAFRKAFDIVGLLNQEGIYPNNDLYRPKMIKEAIKKHLNAVPEIDFTKNENSEYVLTDINVCVNQQATRFVDCPTDDATDDYRLKFVRLPSKMKFADPRTNSII
Take B1: in the test with LPA3 receptor, the “change in intracellular cAMP level” value was “no influences on intracellular cAMP level”. The “gintonin-induced NMDA receptor activation” value in test [1] is “maintained gintonin-induced NMDA receptor activation”. Besides, the “swimming time in the quadrant where the platform had been located” value stood at 21.33 ± 3.13 s with mice (gintonin 25 mg/kg p.o. + scopolamine), 24.53 ± 3.91 s with mice (gintonin 50 mg/kg p.o. + scopolamine) and 25.17 ± 4.43 s in the test with mice (gintonin 100 mg/kg p.o. + scopolamine). The “latent time to reach hidden platform” value in the test on mice (gintonin 25, 50, 100 mg/kg p.o. + scopolamine, day 1 to day 4) was “reduce the latent time extended by scopolamine significantly and in a dose-dependent manner”. The cell migration entry with HUVECs [2] is recorded as “promoted cell migration in a concentration-dependent manner”. The tubular formation entry in the test with HUVECs [3] is “promoted tubular formation”. The “transient increase in cytoplasmic free Ca2+ level” value in test [4] is given as “induces a transient increase in cytoplasmic free Ca^2+ level”.
